Assay results from patent US20110195069A1.

Columns and labels:
[1] = biological target: baboon factor D (in baboon serum) (baboon); assay: cell-based or functional assay
[2] = biological target: dog factor D (in dog serum) (dog); assay: cell-based or functional assay; details: scale: times less effective than for human factor D
[3] = biological target: human factor D (purified from human serum, or as present in human serum/plasma) (human) (UniProt P00746); assay: cell-based or functional assay
[4] = biological target: human factor D (purified from human serum, or as present in human serum/plasma) (human) (UniProt P00746); assay: ELISA: wells coated with purified human factor D, serially diluted MAb, HRP goat anti-mouse IgG (Fc), OD450
[5] = biological target: factor D/Pighu (pig-human factor D hybrid) (pig; human) (UniProt P00746); assay: ELISA: wells coated with recombinant factor D protein at 0.5 µg/ml, serially diluted MAb 166-32, HRP goat anti-mouse IgG (Fc), OD450
[6] = biological target: factor D/VDA (human factor D mutant V113E, D116E, A118P) (human) (UniProt P00746); assay: as above

EC50 (read off the curve) [4]: 0.008 µg/mL
EC50 (read off the curve) [5]: 0.02 µg/mL
EC50 (read off the curve) [6]: 0.02 µg/mL
Substance: MAb 166-32 (antibody)
inhibition of alternative complement hemolytic activity (rabbit red blood cells) of plasma samples from baboons given 5 mg/kg Mab 166-32, 18 hours after CPB [1]: 79.3%
neutralization of dog factor D in hemolytic assays, compared to human factor D [2]: > 10
alternative pathway hemolytic activity of plasma from extracorporeal circuits of human whole blood (molar ratio MAb : factor D) [3]: 1.5
inhibition of factor D dependent alternative pathway hemolysis of unsensitized rabbit RBCs (factor D depleted human serum supplemented with purified factor D) [3]: 0.3 µg/mL
molar ratio (MAb 166-32 to factor D) for inhibition of factor D dependent hemolysis (molar ratio MAb 166-32 : factor D) [3]: 0.5
